Measurements as given in US20240173377A1 (EPIVAX, published 2024).

Legend:
Test in all cases: competition HLA binding assay: soluble HLA, labeled control peptide, capture on anti-human DR antibody, time-resolved fluorescence
HLA DRB1*0301 = target: T1, HLA DRB1*0301 (human)
T1 construct: Described only as a soluble HLA molecule; also called soluble HLA molecule

HLA DRB1*0101 = target: T2, HLA DRB1*0101 (human)
T2 construct: Described only as a soluble HLA molecule; also called soluble HLA molecule

HLA DRB1*0401 = target: T3, HLA DRB1*0401 (human)
T3 construct: Described only as a soluble HLA molecule; also called soluble HLA molecule

HLA DRB1*0701 = target: T4, HLA DRB1*0701 (human)
T4 construct: Described only as a soluble HLA molecule; also called soluble HLA molecule

HLA DRB1*1301 = target: T5, HLA DRB1*1301 (human)
T5 construct: Described only as a soluble HLA molecule; also called soluble HLA molecule

HLA DRB1*1101 = target: T6, HLA DRB1*1101 (human)
T6 construct: Described only as a soluble HLA molecule; also called soluble HLA molecule

Measured: binding result

B1: SEQ ID NO 114 (peptide)
peptide: EEQYNSTYTVVSVLTVLHQD
notes: L-amino acid Tregitope, assayed alongside its retro-inverso counterpart
binds: HLA DRB1*0301 | HLA DRB1*0101 | HLA DRB1*0401 | HLA DRB1*0701 | HLA DRB1*1301 | HLA DRB1*1101

B2: SEQ ID NO 115 (peptide)
peptide: ILTIHFTGHSFIYGK
notes: as for B1
binds: HLA DRB1*0301 | HLA DRB1*0101 | HLA DRB1*0401 | HLA DRB1*0701 | HLA DRB1*1301 | HLA DRB1*1101
